# Results taken from the nanobody polyreactivity screen of Harvey et al. (2022).
# Experiment: yeast display, Sf9 membrane polyspecificity reagent, FACS + sequencing; frameworks hold sequencing errors
# How it was run: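 Nanobodies from a synthetic yeast display library (Saccharomyces cerevisiae BJ5465), induced 36–48 hours with galactose, were stained 1 hour at 4 °C with 10% biotinylated, detergent-solubilized Sf9 membrane reagent, enriched on streptavidin microbeads, then FACS-sorted. Anti-HA (expression) and streptavidin (reagent binding) fluorescence set low and high (top ~1%) gates. Polyreactivity labels come from the gate of origin. Genes were colony-PCR amplified, MiSeq 2 × 250 sequenced and filtered by CDR length.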
row,Sequence,polyreactivity (PSR sort gate)
1,QVQLVESGGGLVQAGGSLRLSCAASGYIFTFYTMGWYRQEPGKERDLVAAISQTGGRTYYADSVKGRFTISRDNAKNTVYLEMNSLKPEDTAVYYCAARSKRLAHDYWGQGTQVTVSS,high polyreactivity
2,QVQLVESGGGLVQAGGSLRLSCAASGYIFTGNAMGWYRQAPGKERELVAAIDSGGSTYADSVKGRFTISRDNAKNTVYLQMNSLKPEDTAVYYCNADQNEDTYLSYYGDYDYWGQGTQVTVTS,low polyreactivity
3,QVQLVESGGGLVQAGGSLRLSCAASGYIFTTNAMGWYRQAPGKERELVAAISSSGGSTYYADSVKGRFTISRDNAKNTVYLQMNSLKPEDTAVYYCAVRRSTGSRSPPMYYWGQGTQVTVSS,high polyreactivity
4,QVQLVESGGGLVQAGGSLRLSCAASGYIFTYYAMGWYRQAPGKERELVAAISTSGTSTYYADSVKGRFTISRDNAKNTVYLQMNSLKPEDTAVYYCAKRSGARHRLMDYWGQGTQVTVSS,low polyreactivity
5,QVQLVESGGGLVQAGGSLRLSCAASGYIFVIYAMGRYRQAPGKERELVAAITDGGDNTYYADSVKGRFTISRDNAKNTVYLHMNSLKPEDTAVYYCAADVYLPIAAWEGSLEYYYWGQGTQVTVSS,high polyreactivity
6,QVQLVESGGGLVQAGGSLRLSCAASGYIFVNYGMGWYRQAPGKERELVAVITNGGRTNYADSVKGRFTISRDNAKNTVYLQMNSLKPEDTAVYYCNARSFRQYYYWGQGTQVTVSS,high polyreactivity
7,QVQLVESGGGLVQAGGSLRLSCAASGYIFVVNAMGLDRQAPGKERELVAAIDWGGGSTYADSVKGRFTISRDNAKNTVYLQMNSLKPEDTAVYYCAADLWPYPNDYWGQGTQVTVSS,low polyreactivity
8,QVQLVESGGGLVQAGGSLRLSCAASGYIFVVNAMGWYRQAPGKERELVAAIDWGGGSTYADSVKGRFTISRDNAKNTVYLQMYSLKPEDTAVYYCAADLWPYPNDYWGQGTQVTVSS,low polyreactivity
9,QVQLVESGGGLVQAGGSLRLSCAASGYIFWSNTMGWYRQAPGKERELVAAISQSTASTYYADSVKGRFTISRDNAKNTVYLQMNSLKPEDTAVYYCAAYYNFGDYEYDYWGQGTQVTVSS,low polyreactivity
10,QVQLVESGGGLVQAGGSLRLSCAASGYIFYANAMGWYRQAPGKERELVASISTGGNTNYADSVKGRFTISRDNAKNTVYLQMKSLKPEDTAVYYCAVRSTVPYLWRTPVTRDYWGQGTQVTVSS,low polyreactivity
11,QVQLVESGGGLVQAGGSLRLSCAASGYIFYIYAKGWNRQAPGKERELVAAISYSDGTTYYADSVKGRFTISRDNAKNTVYLQMNSLKAEDTAVYYCAADLWVGLVSLWDGYVEYDYWGQGTQVTVSS,low polyreactivity
12,QVQLVESGGGLVQAGGSLRLSCAASGYIFYYNTMGWYRQAPGKERELVAAISATGGRTYYADSVKGRFTISRDNAKNTVYLQMNSLKPEDTAVYYCAKRGISPYGYWGQGTQVTVSS,high polyreactivity
13,QVQLVESGGGLVQAGGSLRLSCAASGYIFYYYAMGWYRQAPGKERELVAAINRSGTSTYYADSVKGRFTISRDNAKNTVYLQMNSLKPEDTAVYYCAAVAGNKLYYWGQGTQVTVSS,high polyreactivity
14,QVQLVESGGGLVQAGGSLRLSCAASGYIIGRYVMGWYRQAPGNERELVAAITASGGSTNYADSVKGRFTISRDNAKNTVYLQMNSLKPEDTAVYYCAADYSWYYFDFEYWGQGTQVTVSS,high polyreactivity
15,QVQLVESGGGLVQAGGSLRLSCAASGYILFAYAMGWYRQAPGKERALVATITTSGGITYYADSVKGRFTISRDNAKNTVYLQMNSLKPEDTAVYYCAAAEGGGLVTYDYWGQGTQVTVSS,low polyreactivity
16,QVQLVESGGGLVQAGGSLRLSCAASGYILQINAMGWYRQAPGKERELVAAISISGGNTYYADSVKGRFTISRDNAKNTVYLQMNSLKPEDTAVYYCAAYRYYSYLVRYGLLLAYYYWGQGTQVTVSS,low polyreactivity
17,QVQLVESGGGLVQAGGSLRLSCAASGYILWNAIGWYRQAPGKERELVAAITSGGSTYYADSVKGRFSISRDNAKNTVYLQMNSRKPEDTAVYDCNQESYFDTYRRYDSWGQGTQETVSS,low polyreactivity
